# T1: GST-MAGE-G1 (human, UniProt Q96MG7 1-304)
# T1 sequence (looked up): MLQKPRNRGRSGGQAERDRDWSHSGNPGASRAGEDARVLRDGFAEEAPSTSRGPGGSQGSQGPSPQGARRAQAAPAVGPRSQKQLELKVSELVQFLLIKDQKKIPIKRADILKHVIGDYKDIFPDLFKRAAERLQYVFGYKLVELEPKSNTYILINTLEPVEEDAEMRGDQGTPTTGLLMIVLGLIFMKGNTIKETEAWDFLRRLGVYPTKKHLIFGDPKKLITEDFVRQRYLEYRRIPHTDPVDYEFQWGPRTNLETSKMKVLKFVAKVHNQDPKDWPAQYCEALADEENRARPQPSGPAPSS
# T2: MAGE-G1 (full length, coexpressed with NSE1) (human, UniProt Q96MG7 1-304)
# T2 sequence (looked up): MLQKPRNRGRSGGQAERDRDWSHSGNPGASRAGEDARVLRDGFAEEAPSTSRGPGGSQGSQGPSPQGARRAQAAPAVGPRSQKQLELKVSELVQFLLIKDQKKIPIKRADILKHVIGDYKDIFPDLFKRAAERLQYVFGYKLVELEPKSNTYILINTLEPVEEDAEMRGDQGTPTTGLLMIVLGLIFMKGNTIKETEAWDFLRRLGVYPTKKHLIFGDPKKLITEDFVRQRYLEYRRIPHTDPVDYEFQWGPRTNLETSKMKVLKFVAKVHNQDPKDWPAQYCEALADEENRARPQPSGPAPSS
# Legend:
# [1] = biological target: T1, GST-MAGE-G1; experiment: pull-down
# [2] = biological target: T2, MAGE-G1 (full length, coexpressed with …); experiment: co-purification after coexpression in bacteria
binding result [1],binding result [2],Binder
binds,,"NSE1 (purified recombinant) (natural protein, UniProt Q8WV22 1-266, looked up) MQGSTRRMGVMTDVHRRFLQLLMTHGVLEEWDVKRLQTHCYKVHDRNATVDKLEDFINNINSVLESLYIEIKRGVTEDDGRPIYALVNLATTSISKMATDFAENELDLFRKALELIIDSETGFASSTNILNLVDQLKGKKMRKKEAEQVLQKFVQNKWLIEKEGEFTLHGRAILEMEQYIRETYPDAVKICNICHSLLIQGQSCETCGIRMHLPCVAKYFQSNAEPRCPHCNDYWPHEIPKVFDPEKERESGVLKSNKKSLRSRQH"
,binds,"NSE1 (full length, coexpressed with MAGE-G1) (natural protein, UniProt Q8WV22 1-266, looked up) MQGSTRRMGVMTDVHRRFLQLLMTHGVLEEWDVKRLQTHCYKVHDRNATVDKLEDFINNINSVLESLYIEIKRGVTEDDGRPIYALVNLATTSISKMATDFAENELDLFRKALELIIDSETGFASSTNILNLVDQLKGKKMRKKEAEQVLQKFVQNKWLIEKEGEFTLHGRAILEMEQYIRETYPDAVKICNICHSLLIQGQSCETCGIRMHLPCVAKYFQSNAEPRCPHCNDYWPHEIPKVFDPEKERESGVLKSNKKSLRSRQH"

# Reference: publication PMC4509788 (Molecular cell, 2010)
